Assay results reported in the supplement of paper PMC9170038.

Tests used:
MS2 coat protein [1] = experiment: apparent KD of MS2 coat protein, switch OFF state (with FMN for OFF switches, without FMN for ON switches); designed switch direction (-1 OFF switch, 1 ON switch): -1; higher = weaker reporter binding; conditions: FMN input: 0 or 200 uM; Eterna round: R93 (includes R88 designs)
Summary of the method: (§1)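 In 100 mM Tris-HCl pH 7.5 with 80 mM KCl and 4 mM MgCl2, and without or with constant ligand, SNAP-549-labelled MS2 coat protein was titrated in twofold steps from 0.7 or 1.5 nM to 3 µM. Per-step times went from 0.8–1.5 h down to 10–20 min. The RNA switches were transcribed on-chip from Illumina sequencing clusters, and apparent KD is the per-design median of normalised cluster binding-curve fits.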

MS2 coat protein [2] = experiment: apparent KD of MS2 coat protein, switch ON state; designed switch direction (-1 OFF switch, 1 ON switch): -1; higher = weaker reporter binding; conditions: FMN input: 0 or 200 uM; Eterna round: R93 (includes R88 designs)
Summary of the method: as §1

| Sequence | apparent KD of MS2 coat protein (MS2 coat protein [1]) | apparent KD of MS2 coat protein (MS2 coat protein [2]) |
| --- | --- | --- |
| AACAGUACAGGAUAUACAUGAGGAUCACCCAUGUAAAAUAAAUAAAAAUAAAAAGGAAGUAGAAGGGUACUGGA [Moding Maslow revisited (73) 18] | 0.0264 µM | 0.0301 µM |
| AAAAAGGUAGGAUAUACAUGAGGAUCACCCAUGUCGCGGCGCGCGGACAGCCCGCCCUGUAGAAGGACCAAAAA [Default title] | 0.0286 µM | 0.035 µM |
| AAAAAGAUAGGAUAUACGAACAUGUCAAAAGACGUGAAGGGACAUGAGGAUCACCCAUGUAGAAGGAUUAAAAA [JL Wide Open 39] | 0.0172 µM | 0.0388 µM |
| AAAAUGUGAGGAUAUGUACGAAAAAAUAAAAAAAUAAAAGUACAGAAGGCACAUGAGGAUCACCCAUGUGAAAA [EX4 396: Minimal 9] | 0.0791 µM | 0.0283 µM |
| AAGGGACAUGAGGAUCACCCAUGUCAGGAUAUGAUGCGAAUAAAGAAAGAAGAAAGCAUCAGAAGGGACGCCUA [58%, Disencluded 3, 6] | 0.0276 µM | 0.0193 µM |
| AAAGCUGAAGGAUAUACUUGGAAAAAAAAAAAAAAAAAAAAACAUGAGGAUCACCCAUGUAGAAGGUCAGAUAA [Mat - Mod] | 0.0367 µM | 0.0411 µM |
| AAAAUGUCAGGAUAUUCGGAUAGGAAAACGAAAACCUAUCCGAAGAAGGGACAUGAGGAUCACCCAUGUAAAAA [Starry Exclusion 4.2 (cataway round 1 mod)] | 0.341 µM | 0.0814 µM |
| AAAACACAUGAGGAUCACCCAUGUGAGGAUAUGCUAGUGAAAAUAAAAAUAAAACAUAGCAGAAGGCACAAGGA [Amethyst 79] | 0.0458 µM | 0.0437 µM |
| AAAAAGAGAGGAUAUACAUGAGGAUCACCCAUGUAACAUUAAAUAAAUAAAAUAAAGUGUAGAAGGCUCAAAAA [65%, Moding Exclusion3-cac2, 24] | 0.0343 µM | 0.0279 µM |
| UCUUGACAUGAGGAUCACCCAUGUCAGGAUAUAGUAGGACAAAUAAAUAAAAGUUCUACUAGAAGGGAUAUGGA [Design 18: G-U+] | 0.0127 µM | 0.0143 µM |
| AAGUUAUUAGGAUAUACUUGUGCGAUUAAUACGCUGAUAGUACAUGAGGAUCACCCAUGUAGAAGGAAUAAAAA [JR_Exc002_Sub410] | 0.0212 µM | 0.0334 µM |
| GAAUACCUAGGAUAUACAUGAGGAUCACCCAUGUCAGUAGACUGGGAAAAGUCUCUCAGUAGAAGGAGGACCAG [Anaran] | 0.233 µM | 0.192 µM |
| ACCAGACAUGAGGAUCACCCAUGUCAGGAUAUAGUAUGAAAAAAAAAAAAAAAAAAUACUAGAAGGGACAAGGG [Design 14: Super Stable Short Helix 5] | 0.0638 µM | 0.0297 µM |
| AAAAAACAUGAGGAUCACCCAUGUGAGGAUAUACGAAAGUAGAAGGCACUAAAAAAAAAAAGAAGGAAAAAAAA [Meechl Ex1 R2 m0] | 0.0424 µM | 0.0242 µM |
| AACUGACAUGAGGAUCACCCAUGUCAGGAUAUGACAUCGAAAAAAAAAAAAAUCGUUGUCAGAAGGGACAUGGG [Design 73: Sub-opt QB] | 0.00944 µM | 0.0119 µM |
| AAACGUAGAGGAUAUACAGGGCUAUUACGAAAGUAAUAGAAACAUGAGGAUCACCCAUGUAGAAGGCUACGAAA [Mod2 of Meechl 64% 1] | 0.0679 µM | 0.162 µM |
| AAGAAACAUGAGGAUCACCCAUGUCAGGAUAUUGAAAAGAAAAGAAAAGAAAGAAGAACAAGAAGGGACAAAGG [Neferkare (III) Neby] | 0.0403 µM | 0.0371 µM |
| AAGGGACAUGAGGAUCACCCAUGUCAGGAUAUGAUGCGAAUAAAGAAAGAAGAAAGCAUCAGAAGGGACGCCAA [58%, Disencluded 3, 5] | 0.0395 µM | 0.0254 µM |
| CUUAGACAUGAGGAUCACCCAUGUGAGGAUAUGAUGCGAAUAAAGAAAGAAGAAAGCAUCAGAAGGCACAUAUG | 0.545 µM | 0.0413 µM |
| AAAUAGUUAGGAUAUACAUGAGGAUCACCCAUGUGGACUGAUGUCGCGUGAUUCAGUGGUAGAAGGGACUCAAA [EX2 Malc#36] | 0.075 µM | 0.0473 µM |
| ACGUUGAGAGGAUAUACGAACAUGUCAAAAGACGUGAAGGGACAUGAGGAUCACCCAUGUAGAAGGCUCAACGA [Mat - Exclusion 2 - JL mod - D9] | 0.186 µM | 0.0463 µM |
| CUUAUGUCAGGAUAUCAGUAGUAAAAAAAUAAAAUUACUACUGAGAAGGGACAUGAGGAUCACCCAUGUCCGGG [EX4 369: Super Stable 69] | 0.034 µM | 0.0784 µM |
